# Source: the nanobody polyreactivity screen of Harvey et al. (2022)
# Assay: yeast display, Sf9 membrane polyspecificity reagent, FACS + sequencing; frameworks hold sequencing errors
# How it was run: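 Using colony PCR, genes from sorted yeast display clones were amplified, then sequenced on MiSeq at 2 × 250 and filtered by CDR length. The clones had been stained with 10% biotinylated, detergent-solubilized Sf9 membrane reagent for 1 hour at 4 °C and sorted by FACS into low and high (top ~1%) gates on anti-HA and streptavidin fluorescence. Polyreactivity labels come from the gate of origin.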
row,Sequence,polyreactivity (PSR sort gate)
1,QVQLVESGGGLVQAGASLRLSCAASGHIFDSYAMGWYRQAPGKERELVAAITSGGSTYYADSVKGRFTISRDYAKNTVYLQMNSLKSEDTAVYYCATELGAAGDDSWGQGTQVTVSS,low polyreactivity
2,QVQLVESGGGLVQAGASLRLSCAASGIILHYYAMGGYRQAPGKERELVAAISARGGRTYYADSVKGRFTISRDNAKNTVYLQMNSLKPEDTAVYYCARYLRRSSPSPGYGYWGQGTQVTVSS,high polyreactivity
3,QVQLVESGGGLVQAGASLRLSCAASGITFLDYAMGWYRQAPGTEREMVAVITWNDGSTYYADSVKGRFTISRDNAKNTVYLQMNSLKPEDTAVYYCAAEYADSWSAFDWNYYYWGQGTQVTVSS,high polyreactivity
4,QVQLVESGGGLVQAGASLRLSCAASGLIFVSNAMGWYRQAPGKERELVAAISWSGSRTYYADSVKGRFTISRDNAKINVYLHMTSLKPEDTAVFYCNAVRRGLPVVGAYDYWGQGTQVTVSS,high polyreactivity
5,QVQLVESGGGLVQAGASLRLSCAASGRIFNGYAMGWYRQAPWKERELVATIRYRGDNTYYADSVKGRFTISRDNAKNTVYLQMNSLKPEDTAVYYCNARVWYTSTSSWAKRYNYWGQGTQVTVSS,high polyreactivity
6,QVQLVESGGGLVQAGASLRLSCAASGRIFSGNAMGWYRQAPGKERELVAAISRGGSTDYADSVKGRFTSSRDNAKNTVYLQMNSLKPEDTAVYYCADRVNGKRRRYDYWGQGTLVTVSS,high polyreactivity
7,QVQLVESGGGLVQAGASLRLSCAASGRTFAWYAMGWYRQAPGKERELVAAISSGGSTYYADSVKGRFTISRDNAKISVYLQMNSLKPEDTAVYDCAAEWHYIYAYDYWGQGTKVTVSS,low polyreactivity
8,QVQLVESGGGLVQAGASLRLSCAASGRTFAYNAMGWSRQAPGKERELVATISNGGTTNYADSVKGRFTISRDNAKNTVYLQMNSLKPEDTAVYYCNRRSYTQVLMDYWGQGTQVTVSS,high polyreactivity
9,QVQLVESGGGLVQAGASLRLSCAASGRTFGRYTMGWYRQAPGKEREFVARINWNGGGTYYADSVKGRFTISRDNAKNTVYLQMNSLKPEDTAVYYCNARKRGARFILGYDYWGQGTQVTVSS,low polyreactivity
10,QVQLVESGGGLVQAGASLRLSCAASGRTFRYYAMGWYRQAPGKERELVAAINTGSSTYYADSVKGRFTISRDNAKYTVYLQMNSLKPEDTAVYYCNVFQGTRYGYWGQGTKVTVSS,low polyreactivity
11,QVQLVESGGGLVQAGASLRLSCAASGRTFSENAMGWYRQAPGKERELVAAISGSGGRTYYADSVKGRFTISRDNEKNTVYLQMKSLKPEVTAVYYCAKVTRYGSTYDYWGQGTQVTVSS,high polyreactivity
12,QVQLVESGGGLVQAGASLRLSCAASGRTLKVYAMGWYRQAPGKERELDAAINNGGSTNYADSVKGRFTISRDNAKNTVYLQMNSLKPEDTAVYYCNAVYYARYRKYTYYYWGQGTQVTVSS,high polyreactivity
13,QVQLVESGGGLVQAGASLRLSCAASGSIFGGYGMGWYRQAPGKERELVAAITSRVGSTYYADSVKGRFTSSRDNAKNTVYLQLNSLNPEDTAVYYCAAKRIYSWGRWTGDYWGQGTQVTVSS,high polyreactivity
14,QVQLVESGGGLVQAGASLRLSCAASGSIFRVYAMGWYRQAPGKERELVATIDTSTDSTYYADSVKGRFTISRDNAKNTVYIQMNSLKPEDTAVYYCNARGTYARYFQYDYSGQGTQVTVSS,low polyreactivity
15,QVQLVESGGGLVQAGASLRLSCAASGSIFSWYTMGWYRQAPGKERELVARITTSGGTTLYADSVKGRFTISRDNAKNTVYFQMNSLKPEDTAVYYCAADRSPYWRGYVRYNYWGQGTQVTVSS,high polyreactivity
16,QVQLVESGGGLVQAGASLRLSCAASGSIIDDYAMGWYRQAPGKERELVAAITYSGGTTYYADSVKGRFTISRDNAKNTVYLQLNSLKREDTAVYYCAAEWRVYYATYGYWGQGTQVTVSS,high polyreactivity
17,QVQLVESGGGLVQAGASLRLSCAASGSTFVIYTMGWYRQAPGKERDLVAAISWSGGITRYADSVKGRFTISRDNGKNTVYLQMNSLKPEDTAVYYCNASQWPSRFDYWGQGPQVTVSS,low polyreactivity
18,QVQLVESGGGLVQAGASLRLSCAASGSTLSYAMGWYRQAPGKERELVAAISRSGGSTYYADSVKGRFTISRDNAKNTVYLLMNSLKPEDTAVYYCAADPYPSYANGGYYWGQGTQVTVSS,low polyreactivity
19,QVQLVESGGGLVQAGASLRLSCAASVSTFGVNAMGCYRQAPGKERELVAAISSSGSSTYADSVKGRFTISRDNAKNTVYLQMNSLKPEDTAVYYCNITTLLSVVYDYWGQGTQVNVSS,low polyreactivity
20,QVQLVESGGGLVQAGASLRLSCAAYGNINAYYAMGWYRQAPGKERELVAAITDSGGNTFYADSVKGRFTISRDNAKNTVYLQMNSLTPADSAVYYCADDPDGWGFVYPRYDYWGQCTQVTVSS,low polyreactivity
21,QVQLVESGGGLVQAGASLRLSCAGSGIIFTRYAMGWYRQAPGKERELVAAITRNGVSTYYADSVKGRFTISRDNAKNTVYLQMNSLKPEDTAVYYCNTYVLRRYAYGYWGQGTQVTVSS,high polyreactivity

row,Sequence,polyreactivity (PSR sort gate)
1,QVQLVESGGGLVQAGASLRLSCASSGSIFPGYDMGWYRQAPGKEREMVAAITTGGSTYYADSVKGRFTISRDNAKNTVYLQMNSLKPEDTAVYYCAAVYTGSGKRYYKGYYWGQGSQVTVSS,low polyreactivity
2,QVQLVESGGGLVQAGASRRLSCAASVFTFGDNAMGWSRQATGKDRELVDAITSSGSTNYADSVKGRFTMSRDIAKNTVYLQLNSLTQEDTAVNYCNAEDSVDAPVYKDLGSEYDSWGQGTQVTVSS,low polyreactivity
3,QVQLVESGGGLVQAGCILRLSCAASGRIYVKAMGCYRQPPGIERELVAAIRSGGSTNYADSVKGLFTISRDNAKNTVYLQMNSLKPEDTAVYYCDAPYRLSKYDYWGQGTQVTESS,high polyreactivity
4,QVQLVESGGGLVQAGCSLRITCAASGYTFYDYAMGWYRQAPRKERELVAAISSSGGSTYYAHSVKGRFTISRDTAKNTVYLQMISLKPEDTAVYYCDVRARRWRYNYWGQGTQVTVSS,high polyreactivity
5,QVQLVESGGGLVQAGCSLRLSCAACGSIFGPYSMGWYRQAPAKEREFVAAISRSGTSTNYADSVKGRFTISRDNAKNTVYLQMNSLKPEDTAVYYCATAAFIVGSSRTYDYWGQGTQVTVSS,high polyreactivity
6,QVQLVESGGGLVQAGCSLRLSCAASGFTFDGYAMVSYRQAPGKERELVAAISDSGDSTYYADSVKGRFTISRDNAKNTVYLQMISLKPEDTADYYCAAALGYYWSDYFAYDYWGQGTQVTVSS,low polyreactivity
7,QVQLVESGGGLVQAGCSLRLSCAASGFTFIQYAMGWYRPAPGKERELVAAITRSGGRTYYADSVKGRFTISRDNAKNTVYLQMNSLKPEDTAVYYCNAVSRIYPGDEFGYWGQGTQVTVSS,high polyreactivity
8,QVQLVESGGGLVQAGCSLRLSCAASGRIFDTYAKGWYRQAPGKERELVATITAGTSTNYADSVKGRFTISRDNAKNTVYLKMNCLKPEDTAVYYCAASKYGSPPYRSYVYWGQGTQVSVSS,high polyreactivity
9,QVQLVESGGGLVQAGCSLRLSCAASGRIFSRNAMGWYRQAPGKERELVAVITKRGGSTYYADSVKGRFTISRDKAKNTVYLQMNSLKPEDTAVYYCNAVPRRGIAFNHWGQGTHVTVSS,high polyreactivity
10,QVQLVESGGGLVQAGCSLRLSCAASGRIFTTYAMGWYRQAPGKERELVASIDSRGDSTYADSVKGRFTISRDNAKNTVYLQMNSLKPEDTAVYYCAADSWYTWFDSWGQGTQVTVSS,low polyreactivity
11,QVQLVESGGGLVQAGCSLRLSCAASGRIFVKYTMGWYRQAPGKERELVAAIDFDTDSKYYADSVKGRFTFSRDNAKNTVYFQMNSLNPEDTAVYYCAADSYYYGYQGQTQYGWVWYDYWGQVTQVTVSS,low polyreactivity
12,QVQLVESGGGLVQAGCSLRLSCAASGRIYRRYAMGWYRQAPGKERELVAAISSRGGRTYYADSVKGRITISRDNAMNTVYLQMNSLKQEDTAVYYCAARPAGYGHYKYYYWGQGTQVTVSS,high polyreactivity
13,QVQLVESGGGLVQAGCSLRLSCAASGRPFWYNAMGGYRQAPGNVRELVAGISGSGGSTYYADSVKGRFTISRDNAKNTVYLQMNSLKPEDTAVYYCAATTGYSRSYRYGYWGQGTQVTVSS,high polyreactivity
14,QVQLVESGGGLVQAGCSLRLSCAASGRTFLLYAMGWYRQAPGKERELVAAITWGGGSTYYADSVKGRFTISRDNAKNIVYLQMNCLKPEDTAVYYCNAYYWSRMDYWGQGTQVTVSS,low polyreactivity
15,QVQLVESGGGLVQAGCSLRLSCAASGRTFVYNAMGWYRKAPGKERELVAGITGSGDSTYYADSVKGRFTISRDNAKNTVYLQMNSMKPEDTAVYYCNQLVEEDYWGQGTQVTVSS,low polyreactivity
16,QVQLVESGGGLVQAGCSLRLSCAASGSIFAPYAMGWYRQAPGKERELVAAISYSGGSTYYADSVKGRLTISRDNAKNTVYLQMNSLKPEDTAVYYCAARVLHQDFYKRYYWGQGTQVTVSS,high polyreactivity
17,QVQLVESGGGLVQAGCSLRLSCAASGSIFDTNAKGWYRQAPGKERELVAAIYDNTGRTYYADSVKGRFTISRDNSKNTVYLQMNSQKPEDTAVYYCNAPRYYWISFARWPASYYYWGQGTQVTVSS,high polyreactivity
18,QVQLVESGGGLVQAGCSLRLSCAASGSIFSQSAMGWYRQAPGKERELVAAISARGTSTYYADSVKGRFTISRDNAKNTVYLQMNSLKPEDTAVYYCNTVRPYSSSSSRYYYWGQGTQVTVSS,high polyreactivity
19,QVQLVESGGGLVQAGCSLRLSCAASGSIFSYYDMGSYRQAPGKERELVAGISRGGSTNYADSVKGRFTISRDNAKNTVYLQMNILKPEDTAVYYCNADQSSRTYPFRLSRRSLLYGYWGLGTQVTVSS,low polyreactivity
20,QVQLVESGGGLVQAGCSLRLSCAASGSIFYGYAMGWYRQAPGKERELVARITGSGGDTSYADSVKGRFTISRDNAKNTVYLQMNSLKPEDTAVYYCNTDLYITYTLYTGSEYDYWGQGTQVTVSS,low polyreactivity
